US20240043540A1 (Innovent, published 2024)

Key:
[1] = target: T1, cynomolgus monkey B7H3 expressed on CHO cells (CHO-cynoB7H3) (cynomolgus monkey, UniProt Q7TPB4 26-316 (rat entry)); test: flow cytometry, hybridoma supernatant on CHO-cynoB7H3 cells
T1 chain: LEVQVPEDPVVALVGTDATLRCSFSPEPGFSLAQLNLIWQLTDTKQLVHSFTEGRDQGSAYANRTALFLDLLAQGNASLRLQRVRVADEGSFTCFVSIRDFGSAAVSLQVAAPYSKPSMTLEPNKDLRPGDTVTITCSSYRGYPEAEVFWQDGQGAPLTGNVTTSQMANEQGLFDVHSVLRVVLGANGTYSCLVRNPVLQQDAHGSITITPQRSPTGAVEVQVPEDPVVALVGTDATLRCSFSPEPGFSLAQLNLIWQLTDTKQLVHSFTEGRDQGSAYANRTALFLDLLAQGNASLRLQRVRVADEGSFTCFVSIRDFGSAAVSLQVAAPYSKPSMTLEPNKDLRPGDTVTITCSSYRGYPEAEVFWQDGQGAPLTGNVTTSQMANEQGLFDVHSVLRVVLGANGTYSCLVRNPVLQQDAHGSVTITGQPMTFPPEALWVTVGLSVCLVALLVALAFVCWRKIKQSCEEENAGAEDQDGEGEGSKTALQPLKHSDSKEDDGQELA

[2] = target: T2, recombinant human 4Ig-B7H3 protein (human, UniProt Q5ZPR3 29-461); test: bio-layer interferometry (ForteBio), hybridoma antibody
T2 construct: also called human B7H3 protein; SINO BIOLOGICAL Catalog No. 11188-H08H
T2 sequence: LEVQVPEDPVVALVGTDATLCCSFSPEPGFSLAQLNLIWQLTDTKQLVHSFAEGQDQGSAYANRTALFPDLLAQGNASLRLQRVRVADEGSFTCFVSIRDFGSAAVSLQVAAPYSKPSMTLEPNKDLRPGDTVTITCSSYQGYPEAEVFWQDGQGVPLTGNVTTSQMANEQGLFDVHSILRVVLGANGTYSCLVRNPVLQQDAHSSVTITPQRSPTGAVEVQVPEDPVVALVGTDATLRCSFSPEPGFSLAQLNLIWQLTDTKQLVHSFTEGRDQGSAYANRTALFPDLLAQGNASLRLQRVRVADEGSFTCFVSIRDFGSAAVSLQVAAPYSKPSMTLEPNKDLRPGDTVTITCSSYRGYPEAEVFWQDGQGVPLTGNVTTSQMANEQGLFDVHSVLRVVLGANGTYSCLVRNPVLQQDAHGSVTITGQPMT

[3] = target: T3, recombinant cynomolgus monkey B7H3 protein (cynomolgus monkey, UniProt Q7TPB4 26-248 (rat entry)); test: as above
T3 construct: also called SINO BIOLOGICAL Catalog No. 90806-C02H-50
T3 chain: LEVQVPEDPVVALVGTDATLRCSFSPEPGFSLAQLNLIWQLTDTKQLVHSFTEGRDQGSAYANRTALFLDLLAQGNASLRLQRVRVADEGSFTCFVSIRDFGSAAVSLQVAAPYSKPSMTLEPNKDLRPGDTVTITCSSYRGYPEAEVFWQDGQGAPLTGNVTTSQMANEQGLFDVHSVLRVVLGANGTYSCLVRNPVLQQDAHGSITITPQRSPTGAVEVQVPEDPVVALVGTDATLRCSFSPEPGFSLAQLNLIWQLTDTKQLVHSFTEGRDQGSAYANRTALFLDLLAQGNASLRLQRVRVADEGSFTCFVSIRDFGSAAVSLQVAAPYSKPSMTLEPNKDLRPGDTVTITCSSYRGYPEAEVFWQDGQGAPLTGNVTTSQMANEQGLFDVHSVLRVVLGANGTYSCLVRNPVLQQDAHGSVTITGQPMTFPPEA

B1: 20G5 (hybridoma clone antibody) (antibody, V domains shown)
VH: EVQLQQSVPELVKPGASVKISCKTSGYTFTEYIMHWVKQSHGKNLEWIGGINPNNGGTTYNQKFKDKATLTVDKSSSTAYMELHNLTSEDSAVYYCTRRTPPWHFAVWGAGTSLTVSS
VL: DIVLTQSPTIMSASPGEKVTMTCSASSSVSYIHWYQQKSGTSPKRWIFDTSRLASGVPARFSGSGSGTSYSLTISSMEAEDAATYYCQQWSSAPLTFGTGTTLELK
B1 was tested, and the binding result [1] was “binds”, the Kd [2] was 0.362 nM and the Kd [3] was 0.59 nM.
